Earlier results on one substance are cited in paper PMC3159028.

In general, Kd refers to the equilibrium constant for the complex coming apart.

In this data set the target is Ndel1 58-169 (Homo sapiens) (UniProt Q9GZM8).
Sequence of Ndel1 58-169 (Homo sapiens) (Q9GZM8 58-169): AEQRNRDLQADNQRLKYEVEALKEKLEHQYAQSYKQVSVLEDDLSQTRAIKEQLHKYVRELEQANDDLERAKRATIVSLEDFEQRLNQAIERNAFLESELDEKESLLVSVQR

Sequence of Lis1 (P43034 whole entry): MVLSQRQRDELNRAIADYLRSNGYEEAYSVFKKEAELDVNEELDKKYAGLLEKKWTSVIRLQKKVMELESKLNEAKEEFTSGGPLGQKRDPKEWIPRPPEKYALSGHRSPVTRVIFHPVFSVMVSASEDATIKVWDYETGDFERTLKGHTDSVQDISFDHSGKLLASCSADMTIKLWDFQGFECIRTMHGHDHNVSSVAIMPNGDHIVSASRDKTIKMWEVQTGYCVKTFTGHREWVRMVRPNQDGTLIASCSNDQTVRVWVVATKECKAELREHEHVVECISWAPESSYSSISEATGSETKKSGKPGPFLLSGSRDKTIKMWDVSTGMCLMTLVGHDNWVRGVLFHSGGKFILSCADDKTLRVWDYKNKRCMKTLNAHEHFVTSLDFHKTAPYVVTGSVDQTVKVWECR

Lis1 (from UniProt P43034): the Kd was 300 nM.
